Assays:
[1] = biological target: T1, VEGF (UniProt P15692-4 27-191, limits assumed); test: BLI (Octet-QK), biotin-labeled VEGF on SA probe; repeat 1
T1 construct: In the BLI assay the VEGF was biotin-labeled (Sulfo-NHS biotin, molar ratio 2:1) and loaded on an SA probe
Description: (§1) The binding affinity of the fusion protein is detected using BLI(Bio-layer inteferometry, ForteBio). […] Biotin not involved in labeling is removed by dialysis. […] The buffer used in the experiment is PBS (containing 0.1% Tween-20). […] Based on the program settings, the fusion protein is bound, and then dissociated in PBST solution, to obtain the experimental curve. According to the result analysis software of Octet-QK, local full is used to fit the curve of the experimental results, to calculate kon, kdis and Kd.

[2] = biological target: T1, VEGF; test: BLI (Octet-QK), biotin-labeled VEGF on SA probe; repeat 2
Description: as §1

[3] = biological target: T1, VEGF; test: BLI (Octet-QK), biotin-labeled VEGF on SA probe; repeat 3
Description: as §1

[4] = biological target: T1, VEGF; test: BLI (Octet-QK), biotin-labeled VEGF on SA probe; average value of 3 repeats
Description: as §1

[5] = biological target: T1, VEGF; test: VEGF receptor competitive inhibition ELISA: sample in 3-fold dilutions premixed with 1 µg/mL VEGF, added to coated VEGF Receptor 2/KDR, bound VEGF detected with anti-VEGF antibody
Description: Blocking the ELISA plate with 1% BSA/TBS and placing at 37° C. for 2 h. […] The KDR-coated ELISA plate is washed twice and pat-dried. Then, the gradiently diluted mixture samples are successively transferred to the ELISA plate and placed at 37° C. for 1 h, then the plate is washed 5 times. […] The plate is placed at 37° C. for 1 h and washed 5 times. […] The plate is placed at 37° C. for 1 h and washed for 6 times. After the reaction, adding the color developing solution, and developing the color at 37° C. for 15 min. Adding the stop buffer to terminate the color reaction. Reading the OD450 value on the microplate reader.

T1 sequence (P15692 other isoform, or with tags, fused parts or gaps limits assumed): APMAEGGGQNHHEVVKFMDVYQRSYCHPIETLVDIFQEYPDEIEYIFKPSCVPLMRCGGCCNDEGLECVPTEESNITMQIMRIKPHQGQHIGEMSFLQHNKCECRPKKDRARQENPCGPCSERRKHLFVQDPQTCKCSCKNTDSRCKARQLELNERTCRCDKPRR

Kd [1]: 0.55 nM
Kd [2]: 0.47 nM
Kd [3]: 0.59 nM
Kd [4]: 0.54 nM
IC50 [5]: 0.64 nM
B1: ankyrin repeat protein binding to VEGF (designed binder)
chain: GSDLDKKLLEAARAGQDDEVRILMANGADVNARDSTGWTPLHLAAPWGHPEIVEVLLKNGADVNAADFQGWTPLHLAAAVGHLEIVEVLLKYGADVNAQDKFGKTAFDISIDNGNEDLAEILQKAA
notes: Unfused ARVEGF used as comparator; also called ARVEGF
